{
  "source": "patent US20040087497",
  "proteins": {"B1": {"name": "human CD10 (protein)", "chain": "GKSESQMDITDINTPKPKKKQRWTPLEISLSVLVLLLTIIAVTMIALYATYDDGICKSSDCIKSAARLIQNMDATTEPCTDFFKYACGGWLKRNVIPETSSRYGNFDILRDELEVVLKDVLQEPKTEDIVAVQKAKALYRSCINESAIDSRGGEPLLKLLPDIYGWPVATENWEQKYGASWTAEKAIAQLNSKYGKKVLINLFVGTDDKNSVNHVIHIDQPRLGLPSRDYYECTGIYKEACTAYVDFMISVARLIRQEERLPIDENQLALEMNKVMELEKEIANATAKPEDRNDPMLLYNKMTLAQIQNNFSLEINGKPFSWLNFTNEIMSTVNISITNEEDVVVYAPEYLTKLKPILTKYSARDLQNLMSWRFIMDLVSSLSRTYKESRNAFRKALYGTTSETATWRRCANYVNGNMENAVGRLYVEAAFAGESKHVVEDLIAQIREVFIQTLDDLTWMDAETKKRAEEKALAIKERIGYPDDIVSNDNKLNNEYLELNYKEDEYFENIIQNLKFSQSKQLKKLREKVDKDEWISGAAVVNAFYSSGRNQIVFPAGILQPPFFSAQQSNSLNYGGIGMVIGHEITHGFDDNGRNFNKDGDLVDWWTQQSASNFKEQSQCMVYQYGNFSWDLAGGQHLNGINTLGENIADNGGLGQAYRAYQNYIKKNGEEKLLPGLDLNHKQLFFLNFAQVWCGTYRPEYAVNSIKTDVHSPGNFRIIGTLQNSAEFSEAFHCRKNSYMNPEKKCRVW"}},
  "key": {"Suc-Leu-Ala-Gly-Dox": {"biological_target": "T1, Suc-Leu-Ala-Gly-Dox", "T1 chain": "XAX"}, "Suc-βAla-Leu-Ala-Leu-Dox": {"biological_target": "T2, Suc-βAla-Leu-Ala-Leu-Dox", "T2 chain": "XLAX"}},
  "data": [
    {"protein": "B1", "values": [
      {"measurement": "Percent Conversion/Hour to Gly-Dox, CD10 transfected CHO Clone 8 (Percent Conversion/Hour)", "setting": "Suc-Leu-Ala-Gly-Dox", "value": 0.61},
      {"measurement": "conversion rate to Gly-Dox, CD10 transfected CHO Clone 8", "setting": "Suc-Leu-Ala-Gly-Dox", "value": 0.06, "unit": "mM/h"},
      {"measurement": "Percent Conversion/Hour to Leu-Dox, CD10 transfected CHO Clone 8 (Percent Conversion/Hour)", "setting": "Suc-βAla-Leu-Ala-Leu-Dox", "value": 3},
      {"measurement": "conversion rate to Leu-Dox, CD10 transfected CHO Clone 8", "setting": "Suc-βAla-Leu-Ala-Leu-Dox", "value": 0.3, "unit": "mM/h"}
    ]}
  ]
}
